# B1: Adh1p (Saccharomyces cerevisiae S288C) (protein)
# chain: SIPETQKGVIFYESHGKLEYKDIPVPKPKANELLINVKYSGVCHTDLHAWHGDWPLPVKLPLVGGHEGAGVVVGMGENVKGWKIGDYAGIKWLNGSCMACEYCELGNESNCPHADLSGYTHDGSFQQYATADAVQAAHIPQGTDLAQVAPILCAGITVYKALKSANLMAGHWVAISGAAGGLGSLAVQYAKAMGYRVLGIDGGEGKEELFRSIGGEVFIDFTKEKDIVGAVLKATDGGAHGVINVSVSEAAIEASTRYVRANGTTVLVGMPAGAKCCSDVFNQVVKSISIVGSYVGNRADTREALDFFARGLVKSPIKVVGLSTLPEIYEKMEKGQIVGRYVVDTSK
# notes: tagged full-length ORF, expressed in and purified from S. cerevisiae
# B2: Cdc19p (Saccharomyces cerevisiae S288C) (protein)
# chain: SRLERLTSLNVVAGSDLRRTSIIGTIGPKTNNPETLVALRKAGLNIVRMNFSHGSYEYHKSVIDNARKSEELYPGRPLAIALDTKGPEIRTGTTTNDVDYPIPPNHEMIFTTDDKYAKACDDKIMYVDYKNITKVISAGRIIYVDDGVLSFQVLEVVDDKTLKVKALNAGKICSHKGVNLPGTDVDLPALSEKDKEDLRFGVKNGVHMVFASFIRTANDVLTIREVLGEQGKDVKIIVKIENQQGVNNFDEILKVTDGVMVARGDLGIEIPAPEVLAVQKKLIAKSNLAGKPVICATQMLESMTYNPRPTRAEVSDVGNAILDGADCVMLSGETAKGNYPINAVTTMAETAVIAEQAIAYLPNYDDMRNCTPKPTSTTETVAASAVAAVFEQKAKAIIVLSTSGTTPRLVSKYRPNCPIILVTRCPRAARFSHLYRGVFPFVFEKEPVSDWTDDVEARINFGIEKAKEFGILKKGDTYVSIQGFKAGAGHSNTLQVSTV
# notes: as for B1
# B3: Tpi1p (Saccharomyces cerevisiae S288C) (protein)
# chain: ARTFFVGGNFKLNGSKQSIKEIVERLNTASIPENVEVVICPPATYLDYSVSLVKKPQVTVGAQNAYLKASGAFTGENSVDQIKDVGAKWVILGHSERRSYFHEDDKFIADKTKFALGQGVGVILCIGETLEEKKAGKTLDVVERQLNAVLEEVKDWTNVVVAYEPVWAIGTGLAATPEDAQDIHASIRKFLASKLGDKAASELRILYGGSANGSNAVTFKDKADVDGFLVGGASLKPEFVDIINSRN
# notes: as for B1
# Key:
# Assay in all cases: purified protein
# Assay type in all cases: biochemical, Saccharomyces cerevisiae
# purified protein [1] = substrate: CC=O; details: standardised reaction buffer, 30 °C, co-substrate NADH
# purified protein [2] = substrate: C=C(OP(=O)(O)O)C(=O)O; details: standardised reaction buffer, 30 °C, co-substrate ADP
# purified protein [3] = substrate: O=C(CO)COP(=O)(O)O; details: standardised reaction buffer, 30 °C, measured in-house, also reported in Mendes et al. [42]
protein,measurement,setting,value
B1,Km,purified protein [1],0.462 (SEM 5.3%) mM
same,kcat,purified protein [1],176 s⁻¹
B2,Km,purified protein [2],0.281 (SEM 12%) mM
same,kcat,purified protein [2],20.1 s⁻¹
B3,Km,purified protein [3],6.45 (SEM 5%) mM

# From publication PMC3764422, “A model of yeast glycolysis based on a consistent kinetic characterisation of all its enzymes” (Febs Letters, 2013)
